In paper PMC3159472:

Target: F-SSB-Ct peptide (SSB-Ct with an N-terminal fluoresceine moiety) (E. coli)
Assay: fluorescence polarisation

Kd: 1100 nM
Substance: SSB–ExoI fusion protein
